This note sets out measurements from paper PMC7369618 (Redox Biology, 2020).

The experiment has as its target EGFP-PKM2 (UniProt P14618 1-531). Put plainly: MST.

EGFP-PKM2, sequence (P14618 whole entry): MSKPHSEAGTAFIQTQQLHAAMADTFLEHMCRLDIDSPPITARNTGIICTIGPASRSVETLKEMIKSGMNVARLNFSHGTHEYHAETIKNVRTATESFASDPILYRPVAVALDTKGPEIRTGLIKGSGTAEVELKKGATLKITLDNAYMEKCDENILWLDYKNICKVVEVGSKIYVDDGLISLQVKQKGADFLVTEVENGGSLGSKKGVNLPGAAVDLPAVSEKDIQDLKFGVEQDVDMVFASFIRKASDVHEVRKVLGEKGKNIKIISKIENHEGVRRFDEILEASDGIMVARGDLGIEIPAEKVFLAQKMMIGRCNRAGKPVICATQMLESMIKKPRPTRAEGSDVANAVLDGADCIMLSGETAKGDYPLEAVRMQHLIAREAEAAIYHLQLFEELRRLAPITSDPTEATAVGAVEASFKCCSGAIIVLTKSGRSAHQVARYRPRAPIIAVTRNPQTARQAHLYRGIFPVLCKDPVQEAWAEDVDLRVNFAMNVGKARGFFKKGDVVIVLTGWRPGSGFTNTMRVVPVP

B1: Annexin A5 (sc-4252, Santa Cruz Biotechnology) (natural protein)
chain: MAQVLRGTVTDFPGFDERADAETLRKAMKGLGTDEESILTLLTSRSNAQRQEISAAFKTLFGRDLLDDLKSELTGKFEKLIVALMKPSRLYDAYELKHALKGAGTNEKVLTEIIASRTPEELRAIKQVYEEEYGSSLEDDVVGDTSGYYQRMLVVLLQANRDPDAGIDEAQVEQDAQALFQAGELKWGTDEEKFITIFGTRSVSHLRKVFDKYMTISGFQIEETIDRETSGNLEQLLLAVVKSIRSIPAYLAETLYYAMKGAGTDDHTLIRVMVSRSEIDLFNIRKEFRKNFATSLYSMIKGDTSGDYKKALLLLCGEDD
The molecule B1 registered an equilibrium dissociation constant (Kd) of 0.001 pM.
